Results as given in patent US20170334973A1.
Like-named read-outs stand apart in the source and are kept apart here.

Columns and labels:
RESTV GP (Reston virus) [1] = biological target: RESTV GP (Reston virus) (UniProt Q66799)
SUDV GPdTM (Sudan virus) [2] = biological target: SUDV GPdTM (Sudan virus) (UniProt Q66814)
EBOV GPdTM (Ebola virus) [3] = biological target: EBOV GPdTM (Ebola virus) (UniProt Q05320)
RESTV GP (Reston virus) [4] = biological target: RESTV GP (Reston virus) (UniProt Q66799); remark: listed apart in the source
SUDV GPdTM (Sudan virus) [5] = biological target: SUDV GPdTM (Sudan virus) (UniProt Q66814); remark: listed apart in the source
EBOV GPdTM (Ebola virus) [6] = biological target: EBOV GPdTM (Ebola virus) (UniProt Q05320); remark: listed apart in the source
SUDV GPdTM (Sudan virus) [7] = biological target: SUDV GPdTM (Sudan virus) (UniProt Q66814); remark: listed apart in the source
EBOV GPdTM (Ebola virus) [8] = biological target: EBOV GPdTM (Ebola virus) (UniProt Q05320); remark: listed apart in the source

FVM09 (antibody)
EC50 (RESTV GP (Reston virus) [1]): 0.01 µg/mL | EC50 (SUDV GPdTM (Sudan virus) [2]): 0.011 µg/mL | EC50 (EBOV GPdTM (Ebola virus) [3]): 0.008 µg/mL | EC50 (RESTV GP (Reston virus) [4]): < 0.015 µg/mL | EC50 (SUDV GPdTM (Sudan virus) [5]): < 0.015 µg/mL | EC50 (EBOV GPdTM (Ebola virus) [6]): < 0.015 µg/mL | EC50 (SUDV GPdTM (Sudan virus) [7]): 9.73 nM | EC50 (EBOV GPdTM (Ebola virus) [8]): 7.2 nM
